From paper PMC7966745, “Elucidation of transient protein-protein interactions within carrier protein-dependent biosynthesis” (Communications Biology, 2021)

Target: T1, octanoyl-AcpP (C8-AcpP), E. coli acyl carrier protein (E. coli, UniProt P0A6A8 2-78, octanoyl pantethenamide probe loaded (stable C8 acyl analog); uniformly 15N labeled and perdeuterated)
T1 construct: acyl carrier protein AcpP, E. coli; PDB 2FAD is heptanoyl-AcpP, used for docking only; also called 15N-C8-AcpP; source: E. coli BL21 (DE3), M9 minimal media with 15N NH4Cl and D2O, purified; made apo with P. aeruginosa ACPH, then loaded with CoaA, CoaD, CoaE and Sfp
Assay: NMR titration; 1H-15N HSQC of 15N, perdeuterated C8-AcpP titrated with unlabeled partner, at least five points; 37 °C; 10 mM potassium phosphate pH 7.4, 0.5 mM TCEP, 0.1% NaN3; TITAN 2D lineshape analysis, flexible stoichiometry model
Conditions: both partners purified

T1 sequence (P0A6A8 2-78): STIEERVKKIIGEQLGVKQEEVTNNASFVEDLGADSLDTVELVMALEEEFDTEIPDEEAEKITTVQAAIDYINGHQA

B1: FabF, E. coli elongating ketosynthase (enzyme)
chain: SKRRVVVTGLGMLSPVGNTVESTWKALLAGQSGISLIDHFDTSAYATKFAGLVKDFNCEDIISRKEQRKMDAFIQYGIVAGVQAMQDSGLEITEENATRIGAAIGSGIGGLGLIEENHTSLMNGGPRKISPFFVPSTIVNMVAGHLTIMYGLRGPSISIATACTSGVHNIGHAARIIAYGDADVMVAGGAEKASTPLGVGGFGAARALSTRNDNPQAASRPWDKERDGFVLGDGAGMLVLEEYEHAKKRGAKIYAELVGFGMSSDAYHMTSPPENGAGAALAMANALRDAGIEASQIGYVNAHGTSTPAGDKAEAQAVKTIFGEAASRVLVSSTKSMTGHLLGAAGAVESIYSILALRDQAVPPTINLDNPDEGCDLDFVPHEARQVSGMEYTLCNSFGFGGTNGSLIFKKI
notes: ketosynthase FabF (3-oxoacyl-ACP synthase 2), E. coli; also called KS; source: E. coli BL21 (DE3), purified (Ni-IMAC, Superdex 75)
stoichiometry N: ~1
